{"source": "patent US20260049105A1", "about": "(ARIZONA BOARD OF REGENTS ON BEHALF OF THE UNIVERSITY OF …, published 2026)", "binders": {"B1": {"name": "Ac-Arg-cyclo[Asp-Pip-D-Phe(4-F)-βArg-Trp-Lys]-NH2 (peptide)", "peptide": "RDXFRWK", "modifications": "not fully specified; N-terminal acetyl (Ac); C-terminal amide (NH2); cyclized through the side chains of Asp2 and Lys7; Pip at 3; D-Phe(4-F) at 4; βArg at 5", "notes": "Synthetic cyclic peptide; also called compound 5; analogue 5"}}, "key": {"[1]": {"target": "T1, human melanocortin 3 receptor (human, UniProt P41968 1-323)", "T1 construct": "whole, on cells; also called hMC3R; hM3CR", "T1 sequence (P41968 whole entry)": "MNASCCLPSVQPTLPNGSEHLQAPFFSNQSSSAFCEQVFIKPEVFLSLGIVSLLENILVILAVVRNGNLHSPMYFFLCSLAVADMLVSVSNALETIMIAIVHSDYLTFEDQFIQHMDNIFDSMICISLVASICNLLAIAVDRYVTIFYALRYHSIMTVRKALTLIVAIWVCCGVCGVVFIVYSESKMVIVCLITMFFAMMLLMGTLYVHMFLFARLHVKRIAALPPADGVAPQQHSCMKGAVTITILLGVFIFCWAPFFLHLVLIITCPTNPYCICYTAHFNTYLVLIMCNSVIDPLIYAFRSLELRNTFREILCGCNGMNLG", "assay": "competition with 125I-NDP-α-MSH, cells expressing hMC3R"}, "[2]": {"target": "T2, human melanocortin 1 receptor (human, UniProt Q01726 1-317)", "T2 sequence (Q01726 whole entry)": "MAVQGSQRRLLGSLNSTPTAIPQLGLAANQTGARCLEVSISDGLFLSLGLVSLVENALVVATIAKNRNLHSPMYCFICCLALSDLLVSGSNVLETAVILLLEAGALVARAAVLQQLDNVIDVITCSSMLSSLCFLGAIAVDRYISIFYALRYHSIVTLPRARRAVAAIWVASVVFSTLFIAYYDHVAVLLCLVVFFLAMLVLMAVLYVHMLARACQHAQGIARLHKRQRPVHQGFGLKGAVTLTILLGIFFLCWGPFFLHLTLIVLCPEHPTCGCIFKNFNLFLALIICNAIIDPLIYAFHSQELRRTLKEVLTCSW", "assay": "cell-based or functional assay"}, "[3]": {"target": "T1, human melanocortin 3 receptor", "assay": "cell-based or functional assay"}, "[4]": {"target": "human melanocortin 5 receptor (human, UniProt P33032 1-325)", "sequence (P33032 whole entry)": "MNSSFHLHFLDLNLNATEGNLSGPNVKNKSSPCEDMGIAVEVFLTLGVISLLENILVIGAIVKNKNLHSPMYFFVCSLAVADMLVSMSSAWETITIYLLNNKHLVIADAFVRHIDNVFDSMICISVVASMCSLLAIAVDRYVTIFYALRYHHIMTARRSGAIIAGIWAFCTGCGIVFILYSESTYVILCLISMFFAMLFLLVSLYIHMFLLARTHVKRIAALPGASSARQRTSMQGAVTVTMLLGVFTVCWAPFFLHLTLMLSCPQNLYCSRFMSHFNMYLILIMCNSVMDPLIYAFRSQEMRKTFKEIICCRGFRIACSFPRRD", "assay": "cell-based or functional assay"}, "[5]": {"target": "human melanocortin 4 receptor (human, UniProt P32245 1-332)", "sequence (P32245 whole entry)": "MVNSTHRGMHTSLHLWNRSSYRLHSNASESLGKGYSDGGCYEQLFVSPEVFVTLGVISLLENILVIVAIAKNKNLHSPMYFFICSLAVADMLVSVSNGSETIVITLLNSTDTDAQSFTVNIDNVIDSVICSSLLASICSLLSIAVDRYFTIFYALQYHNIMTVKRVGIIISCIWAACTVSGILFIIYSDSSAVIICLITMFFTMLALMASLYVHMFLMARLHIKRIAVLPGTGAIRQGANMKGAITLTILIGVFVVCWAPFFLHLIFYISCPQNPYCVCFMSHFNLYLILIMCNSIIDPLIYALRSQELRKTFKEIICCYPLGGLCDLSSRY", "assay": "cell-based or functional assay"}, "[6]": {"target": "T2, human melanocortin 1 receptor", "assay": "competition with 125I-NDP-α-MSH, cells expressing hMC1R"}}, "data": [{"binder": "B1", "values": [{"measurement": "IC50", "setting": "[1]", "result": 59, "unit": "nM"}, {"measurement": "Act %", "setting": "[2]", "result": 100, "unit": "%"}, {"measurement": "EC50 (nM), cAMP accumulation", "setting": "[2]", "result": 340, "unit": "nM"}, {"measurement": "Act %", "setting": "[3]", "result": 59, "unit": "%"}, {"measurement": "EC50 (nM), cAMP accumulation", "setting": "[3]", "result": "> 1000", "unit": "nM"}, {"measurement": "Act %", "setting": "[4]", "result": 62, "unit": "%"}, {"measurement": "EC50 (nM), cAMP accumulation", "setting": "[4]", "result": "> 1000", "unit": "nM"}, {"measurement": "EC50 (nM), cAMP accumulation", "setting": "[5]", "result": "> 1000", "unit": "nM"}, {"measurement": "IC50", "setting": "[6]", "result": 14, "unit": "nM"}]}]}
